B1: human 2,3-oxidosqualene:lanosterol cyclase, wild-type without tag (enzyme)
chain: TEGTCLRRRGGPYKTEPATDLGRWRLNCERGRQTWTYLQDERAGREQTGLEAYALGLDTKNYFKDLPKAHTAFEGALNGMTFYVGLQAEDGHWTGDYGGPLFLLPGLLITCHVARIPLPAGYREEIVRYLRSVQLPDGGWGLHIEDKSTVFGTALNYVSLRILGVGPDDPDLVRARNILHKKGGAVAIPSWGKFWLAVLNVYSWEGLNTLFPEMWLFPDWAPAHPSTLWCHCRQVYLPMSYCYAVRLSAAEDPLVQSLRQELYVEDFASIDWLAQRNNVAPDELYTPHSWLLRVVYALLNLYEHHHSAHLRQRAVQKLYEHIVADDRFTKSISIGPISKTINMLVRWYVDGPASTAFQEHVSRIPDYLWMGLDGMKMQGTNGSQIWDTAFAIQALLEAGGHHRPEFSSCLQKAHEFLRLSQVPDNPPDYQKYYRQMRKGGFSFSTLDCGWIVSDCTAEALKAVLLLQEKCPHVTEHIPRERLCDAVAVLLNMRNPDGGFATYETKRGGHLLELLNPSEVFGDIMIDYTYVECTSAVMQALKYFHKRFPEHRAAEIRETLTQGLEFCRRQQRADGSWEGSWGVCFTYGTWFGLEAFACMGQTYRDGTACAEVSRACDFLLSRQMADGGWGEDFESCEERRYVQSAQSQIHNTCWAMMGLMAVRHPDIEAQERGVRCLLEKQLPNGDWPQENIAGVFNKSCAISYTSYRNIFPIWALGRFSQLYPERALAGHP
notes: Expressed in P. pastoris from pPICZB; the whole entry is named; also called hOSC wildtype; hOSC wild-type
B2: human 2,3-oxidosqualene:lanosterol cyclase with C-terminal myc-epitope and 6xHis-tag (enzyme)
chain: TEGTCLRRRGGPYKTEPATDLGRWRLNCERGRQTWTYLQDERAGREQTGLEAYALGLDTKNYFKDLPKAHTAFEGALNGMTFYVGLQAEDGHWTGDYGGPLFLLPGLLITCHVARIPLPAGYREEIVRYLRSVQLPDGGWGLHIEDKSTVFGTALNYVSLRILGVGPDDPDLVRARNILHKKGGAVAIPSWGKFWLAVLNVYSWEGLNTLFPEMWLFPDWAPAHPSTLWCHCRQVYLPMSYCYAVRLSAAEDPLVQSLRQELYVEDFASIDWLAQRNNVAPDELYTPHSWLLRVVYALLNLYEHHHSAHLRQRAVQKLYEHIVADDRFTKSISIGPISKTINMLVRWYVDGPASTAFQEHVSRIPDYLWMGLDGMKMQGTNGSQIWDTAFAIQALLEAGGHHRPEFSSCLQKAHEFLRLSQVPDNPPDYQKYYRQMRKGGFSFSTLDCGWIVSDCTAEALKAVLLLQEKCPHVTEHIPRERLCDAVAVLLNMRNPDGGFATYETKRGGHLLELLNPSEVFGDIMIDYTYVECTSAVMQALKYFHKRFPEHRAAEIRETLTQGLEFCRRQQRADGSWEGSWGVCFTYGTWFGLEAFACMGQTYRDGTACAEVSRACDFLLSRQMADGGWGEDFESCEERRYVQSAQSQIHNTCWAMMGLMAVRHPDIEAQERGVRCLLEKQLPNGDWPQENIAGVFNKSCAISYTSYRNIFPIWALGRFSQLYPERALAGHLEQKLISEEDLNSAVDHHHHHH

Columns and labels:
[1] = target: the molecule itself; assay: sedimentation equilibrium, analytical ultracentrifuge, 0.8% β-OG (self-association)
Method: Sedimentation equilibrium (SE) runs were performed at various speeds at 20° C. with sample volume of 100 μl using an Optima XL-I analytical ultracentrifuge (Beckman-Coulter, Palo Alto). The initial protein concentrations were 0.2-0.6 mg/ml in 20 mM Tris-HCl pH 7.5, 5% glycerol, 1 mM TCEP, 0.8% β-OG and 1 mM MgCl₂ (buffer B). The equilibrium absorbance profiles were recorded after 20 hours at 280 nm.
Analysis of the profiles was performed with the Beckman software package and the Schuck program [sequence] […] All solvent densities matched to the detergent densities by addition of sucrose, or not matched, were measured with a PAAR density meter, type DMA4500 (Anton Paar, Graz, Austria). The detergent densities were assessed in the buffer without protein from separate SE runs where the interference detection optics was used for the non absorbing detergents. […] Because of the sucrose addition the hydration state of the protein has to be considered. […] Thus, this value was used. […] The profiles were analysed by a model with various numbers of bound micelles. […] Thus, the analysis was carried out under this assumption providing a vbar value of 0.791 cm³/g. Similarly, the non-density-matched sample with β-OG under the cmc was analysed with vbar=0746 cm³/g.

[2] = target: human 2,3-oxidosqualene:lanosterol cyclase with C-terminal myc-epitope and 6xHis-tag (human) (UniProt P48449); assay: self-association; sedimentation equilibrium AUC at 14,000 rpm, 0.6% C8E5, supernatant at equilibrium
[3] = target: human 2,3-oxidosqualene:lanosterol cyclase with C-terminal myc-epitope and 6xHis-tag (human) (UniProt P48449); assay: self-association; sedimentation equilibrium AUC at 14,000 rpm, 0.8% β-OG, supernatant at equilibrium
[4] = target: human 2,3-oxidosqualene:lanosterol cyclase with C-terminal myc-epitope and 6xHis-tag (human) (UniProt P48449); assay: self-association; sedimentation equilibrium AUC at 14,000 rpm, 0.016% DDM, supernatant at equilibrium
[5] = target: human 2,3-oxidosqualene:lanosterol cyclase with C-terminal myc-epitope and 6xHis-tag (human) (UniProt P48449); assay: self-association; sedimentation equilibrium AUC at 14,000 rpm, 0.06% LDAO, supernatant at equilibrium
[6] = target: human 2,3-oxidosqualene:lanosterol cyclase with C-terminal myc-epitope and 6xHis-tag (human) (UniProt P48449); assay: self-association; sedimentation equilibrium AUC at 14,000 rpm, 0.2% Triton X-100, supernatant at equilibrium
[7] = target: human 2,3-oxidosqualene:lanosterol cyclase with C-terminal myc-epitope and 6xHis-tag (human) (UniProt P48449); assay: self-association; sedimentation equilibrium AUC at 14,000 rpm, 0.2% β-OG (below CMC), supernatant at equilibrium

Row | Binder | binding result [1] | monomer [%] [2] | monomer [%] [3] | dimer [%] [4] | monomer [%] [4] | tetramer [%] [4] | dimer [%] [5] | monomer [%] [5] | monomer [%] [6] | dimer [%] [7] | monomer [%] [7] | tetramer [%] [7] | trimer [%] [7]
1 | B1 | no binding |  |  |  |  |  |  |  |  |  |  |  | 
2 | B2 |  | 100% | 100% | 23% | 70% | 7% | 6% | 94% | 100% | 71% | 0% | 18% | 11%

— patent publication US20090270506A1 (published 2009)
